Data from patent publication US20220155321A1 (published 2022).

T1: peptide on HLA-A*01:01 (human)
T1 peptide: ASSLPTTMNY


Molecular target: T1, peptide on HLA-A*01:01
Test: multimer staining

binding result	Binder
recognises	Reference F (TCR, V domains shown) Valpha: QKEVEQNSGPLSVPEGAIASLNCTYSDRGSQSFFWYRQYSGKSPELIMFIYSNGDKEDGRFTAQLNKASQYVSLLIRDSQPSDSATYLCAVKDNNARLMFGDGTQLVVKP Vbeta: KAGVTQTPRYLIKTRGQQVTLSCSPISGHRSVSWYQQTPGQGLQFLFEYFSETQRNKGNFPGRFSGRQFSNSRSEMNVSTLELGDSALYLCASSLSSGLYEQYFGPGTRLTVT
recognises	Reference H (TCR, V domains shown) Valpha: GESVGLHLPTLSVQEGDNSIINCAYSNSASDYFIWYKQESGKGPQFIIDIRSNMDKRQGQRVTVLLNKTVKHLSLQIAATQPGDSAVYFCAENMGGAGKSTFGDGTTLTVKP Vbeta: not shown
recognises	Reference C (TCR, V domains shown) Valpha: RKEVEQDPGPFNVPEGATVAFNCTYSNSASQSFFWYRQDCRKEPKLLMSVYSSGNEDGRFTAQLNRASQYISLLIRDSKLSDSATYLCVVPRMDSSYKLIFGSGTRLLVRP Vbeta: KAGVTQTPRYLIKTRGQQVTLSCSPISGHRSVSWYQQTPGQGLQFLFEYFSETQRNKGNFPGRFSGRQFSNSRSEMNVSTLELGDSALYLCASSSTGARRSREQYFGPGTRLTVT
recognises	Reference G (TCR, V domains shown) Valpha: SQQGEEDPQALSIQEGENATMNCSYKTSINNLQWYRQNSGRGLVHLILIRSNEREKHSGRLRVTLDTSKKSSSLLITASRAADTASYFCATAVFNFGNEKLTFGTGTRLTIIP Vbeta: KAGVTQTPRYLIKTRGQQVTLSCSPISGHRSVSWYQQTPGQGLQFLFEYFSETQRNKGNFPGRFSGRQFSNSRSEMNVSTLELGDSALYLCASSSMTSGGPWEQYFGPGTRLTVT
recognises	Reference E (TCR, V domains shown) Valpha: GQQVMQIPQYQHVQEGEDFTTYCNSSTTLSNIQWYKQRPGGHPVFLIQLVKSGEVKKQKRLTFQFGEAKKNSSLHITATQTTDVGTYFCAGQGNRDDKIIFGKGTRLHILP Vbeta: DGGITQSPKYLFRKEGQNVTLSCEQNLNHDAMYWYRQDPGQGLRLIYYSQIVNDFQKGDIAEGYSVSREKKESFPLTVTSAQKNPTAFYLCASSLEWGPYEQYFGPGTRLTVT
